Experiments:
5HT3a = target: T1, 5HT3a (Homo sapiens, UniProt P46098); assay: Ion channel panel (IonWorks Barracuda): 5HT3a; assay type: cell-based
T1 construct: host or cells: HEK293 or CHO
T1 sequence (P46098 whole entry, looked up): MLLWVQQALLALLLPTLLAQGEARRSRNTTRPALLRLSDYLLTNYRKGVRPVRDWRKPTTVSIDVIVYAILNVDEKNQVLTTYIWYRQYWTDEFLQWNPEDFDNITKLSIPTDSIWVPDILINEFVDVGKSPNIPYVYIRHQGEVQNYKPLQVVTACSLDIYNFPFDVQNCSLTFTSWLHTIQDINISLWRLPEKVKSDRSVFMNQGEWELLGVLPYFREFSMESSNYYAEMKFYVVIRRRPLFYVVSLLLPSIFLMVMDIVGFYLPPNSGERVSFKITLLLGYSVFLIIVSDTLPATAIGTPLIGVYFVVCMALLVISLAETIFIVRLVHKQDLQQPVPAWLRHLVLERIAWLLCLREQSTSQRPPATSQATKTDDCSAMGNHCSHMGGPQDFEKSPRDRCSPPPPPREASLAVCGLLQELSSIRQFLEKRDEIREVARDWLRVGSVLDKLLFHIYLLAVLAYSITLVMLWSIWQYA
Outline: (§1)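 Peptides were tested in duplicate at final 20 μM and 200 nM, with concentration set by amino acid analysis, in HEPES-buffered saline. They were applied for at least 5 min to HEK293 or CHO cells transfected with each channel. Currents were expressed as % inhibition, 1-(Ipeptide/Icontrol)×100, or % activation, Ipeptide/Icontrol×100, against a channel-matched reference compound.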

α3β4 = target: T2, α3β4 (Homo sapiens, UniProt P30926+P32297); assay: Ion channel panel (IonWorks Barracuda): α3β4; assay type: cell-based; details: 100% = no change, <100% = inhibition
T2 construct: host or cells: HEK293 or CHO
Outline: as §1

α4β2 = target: T3, α4β2 (Homo sapiens, UniProt P17787+P43681); assay: Ion channel panel (IonWorks Barracuda): α4β2; assay type: cell-based; details: 100% = no change, <100% = inhibition
T3 construct: host or cells: HEK293 or CHO
Outline: as §1

Cav2.1 = target: T4, Cav2.1 (Homo sapiens, UniProt O00555); assay: cell-based; details: 100% = no change, <100% = inhibition
T4 construct: host or cells: HEK293 or CHO
Outline: as §1

Cav2.2 = target: T5, Cav2.2 (Homo sapiens, UniProt Q00975); assay: cell-based; details: 100% = no change, <100% = inhibition
T5 construct: host or cells: HEK293 or CHO
Outline: as §1

Kv2.1 = target: T6, Kv2.1 (Homo sapiens, UniProt Q14721); assay: cell-based; details: 100% = no change, <100% = inhibition
T6 construct: host or cells: HEK293 or CHO
Outline: as §1

GABA = assay: Ion channel panel (IonWorks Barracuda): GABA; assay type: cell-based; details: 100% = no change, <100% = inhibition
Outline: as §1

Nav1.5 = Nav1.5 (Homo sapiens, UniProt Q14524); assay: in vitro; details: 100% = no change; for Activity of Nav1.5 with peptide, expressed as a percentage of the reference compound: peptide at 0.2 μM; for Activity of Nav1.5 with peptide (percentage of the reference compound): peptide at 20 μM
Outline: as §1

hERG = hERG (Homo sapiens, UniProt Q12809); assay: in vitro; details: 100% = no change, <100% = inhibition
Outline: as §1

Kir2.1 = target: T7, Kir2.1 (Homo sapiens, UniProt P63252); assay: Ion channel panel (IonWorks Barracuda): Kir2.1; assay type: cell-based; details: 100% = no change, <100% = inhibition
T7 construct: host or cells: HEK293 or CHO
Outline: as §1

Kv1.1 = target: T8, Kv1.1 (Homo sapiens, UniProt Q09470); assay: cell-based; assay type: cell-based; details: 100% = no change, <100% = inhibition
T8 construct: host or cells: HEK293 or CHO
Outline: as §1

Kv1.2 = target: T9, Kv1.2 (Homo sapiens, UniProt P16389); assay: cell-based; assay type: cell-based; details: 100% = no change, <100% = inhibition
T9 construct: host or cells: HEK293 or CHO
Outline: as §1

Kv1.3 = target: T10, Kv1.3 (Homo sapiens, UniProt P22001); assay: cell-based; assay type: cell-based; details: 100% = no change, <100% = inhibition
T10 construct: host or cells: HEK293 or CHO
Outline: as §1

Nav1.7 = target: T11, Nav1.7 (Homo sapiens, UniProt Q15858); assay: cell-based; assay type: cell-based; details: 100% = no change; for Activity of Nav1.7 with peptide, expressed as a percentage of the reference compound: peptide at 0.2 μM; for Activity of Nav1.7 with peptide (percentage of the reference compound): peptide at 20 μM
T11 construct: host or cells: HEK293 or CHO

NR2A = target: T12, NR2A (Homo sapiens, UniProt Q12879); assay: Ion channel panel (IonWorks Barracuda): NR2A; assay type: cell-based; details: 100% = no change, <100% = inhibition
T12 construct: host or cells: HEK293 or CHO
Outline: as §1

NR2B = target: T13, NR2B (Homo sapiens, UniProt Q13224); assay: Ion channel panel (IonWorks Barracuda): NR2B; assay type: cell-based; details: 100% = no change, <100% = inhibition
T13 construct: host or cells: HEK293 or CHO
Outline: as §1

TRPA1 = target: T14, TRPA1 (Homo sapiens, UniProt O75762); assay: Ion channel panel (IonWorks Barracuda): TRPA1; assay type: cell-based; details: 100% = no change, <100% = inhibition
T14 construct: host or cells: HEK293 or CHO
Outline: as §1

TRPV1 = target: T15, TRPV1 (Homo sapiens, UniProt Q8NER1); assay: Ion channel panel (IonWorks Barracuda): TRPV1; assay type: cell-based; details: 100% = no change, <100% = inhibition
T15 construct: host or cells: HEK293 or CHO
Outline: as §1

[1] = first of two Nav1.5 columns (probably TP1)
[2] = second of two Nav1.5 columns (probably TP2)
[3] = first of two Nav1.7 columns (probably TP1)
[4] = second of two Nav1.7 columns (probably TP2)

T11 sequence (Q15858 whole entry): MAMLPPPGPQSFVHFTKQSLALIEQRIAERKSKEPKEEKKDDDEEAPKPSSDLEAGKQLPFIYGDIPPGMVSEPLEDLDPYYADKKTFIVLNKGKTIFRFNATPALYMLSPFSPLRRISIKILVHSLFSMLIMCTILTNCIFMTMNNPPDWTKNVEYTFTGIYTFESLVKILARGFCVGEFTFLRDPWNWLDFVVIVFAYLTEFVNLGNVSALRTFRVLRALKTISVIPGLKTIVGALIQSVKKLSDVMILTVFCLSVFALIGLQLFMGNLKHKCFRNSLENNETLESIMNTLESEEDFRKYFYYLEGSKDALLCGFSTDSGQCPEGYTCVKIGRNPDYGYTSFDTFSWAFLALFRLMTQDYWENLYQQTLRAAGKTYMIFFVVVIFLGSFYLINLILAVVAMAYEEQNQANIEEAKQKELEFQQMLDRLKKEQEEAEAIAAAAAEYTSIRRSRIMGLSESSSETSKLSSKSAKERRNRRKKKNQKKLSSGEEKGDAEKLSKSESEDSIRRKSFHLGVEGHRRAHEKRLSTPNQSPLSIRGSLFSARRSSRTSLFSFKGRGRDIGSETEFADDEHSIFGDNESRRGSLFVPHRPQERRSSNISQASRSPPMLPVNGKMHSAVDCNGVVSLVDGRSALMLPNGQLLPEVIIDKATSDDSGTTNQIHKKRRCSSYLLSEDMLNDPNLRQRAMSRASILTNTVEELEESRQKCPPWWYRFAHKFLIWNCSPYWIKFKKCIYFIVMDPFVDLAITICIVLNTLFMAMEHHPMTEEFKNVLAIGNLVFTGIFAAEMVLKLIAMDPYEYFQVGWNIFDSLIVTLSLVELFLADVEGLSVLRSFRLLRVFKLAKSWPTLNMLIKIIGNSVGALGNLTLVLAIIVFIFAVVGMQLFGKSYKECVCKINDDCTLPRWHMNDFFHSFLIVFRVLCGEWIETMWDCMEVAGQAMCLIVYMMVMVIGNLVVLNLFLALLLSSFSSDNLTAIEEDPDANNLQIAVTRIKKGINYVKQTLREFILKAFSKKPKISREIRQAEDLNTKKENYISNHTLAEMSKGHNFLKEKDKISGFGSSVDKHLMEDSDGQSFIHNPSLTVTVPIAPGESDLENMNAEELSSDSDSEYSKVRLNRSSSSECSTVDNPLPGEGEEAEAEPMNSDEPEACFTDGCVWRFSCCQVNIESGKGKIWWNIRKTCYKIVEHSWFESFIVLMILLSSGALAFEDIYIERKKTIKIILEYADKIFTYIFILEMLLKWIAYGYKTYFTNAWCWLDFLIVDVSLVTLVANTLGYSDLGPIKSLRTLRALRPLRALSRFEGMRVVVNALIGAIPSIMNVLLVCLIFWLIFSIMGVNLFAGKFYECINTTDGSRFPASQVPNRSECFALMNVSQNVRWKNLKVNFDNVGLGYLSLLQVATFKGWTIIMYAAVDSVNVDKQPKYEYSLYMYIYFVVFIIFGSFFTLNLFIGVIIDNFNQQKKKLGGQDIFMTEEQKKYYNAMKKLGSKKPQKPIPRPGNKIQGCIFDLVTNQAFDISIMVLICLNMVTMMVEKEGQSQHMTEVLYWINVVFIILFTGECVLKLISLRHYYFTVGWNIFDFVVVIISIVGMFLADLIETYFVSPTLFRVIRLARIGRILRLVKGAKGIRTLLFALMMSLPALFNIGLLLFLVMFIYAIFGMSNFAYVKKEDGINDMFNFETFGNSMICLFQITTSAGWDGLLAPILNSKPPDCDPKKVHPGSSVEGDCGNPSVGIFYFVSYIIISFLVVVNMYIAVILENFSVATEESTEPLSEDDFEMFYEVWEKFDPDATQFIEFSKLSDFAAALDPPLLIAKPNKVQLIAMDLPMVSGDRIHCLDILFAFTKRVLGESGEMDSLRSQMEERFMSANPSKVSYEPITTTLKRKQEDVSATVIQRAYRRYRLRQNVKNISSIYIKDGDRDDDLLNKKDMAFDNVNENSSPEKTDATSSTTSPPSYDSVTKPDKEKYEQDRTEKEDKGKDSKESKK
Sequence of Nav1.5 (Q14524 whole entry): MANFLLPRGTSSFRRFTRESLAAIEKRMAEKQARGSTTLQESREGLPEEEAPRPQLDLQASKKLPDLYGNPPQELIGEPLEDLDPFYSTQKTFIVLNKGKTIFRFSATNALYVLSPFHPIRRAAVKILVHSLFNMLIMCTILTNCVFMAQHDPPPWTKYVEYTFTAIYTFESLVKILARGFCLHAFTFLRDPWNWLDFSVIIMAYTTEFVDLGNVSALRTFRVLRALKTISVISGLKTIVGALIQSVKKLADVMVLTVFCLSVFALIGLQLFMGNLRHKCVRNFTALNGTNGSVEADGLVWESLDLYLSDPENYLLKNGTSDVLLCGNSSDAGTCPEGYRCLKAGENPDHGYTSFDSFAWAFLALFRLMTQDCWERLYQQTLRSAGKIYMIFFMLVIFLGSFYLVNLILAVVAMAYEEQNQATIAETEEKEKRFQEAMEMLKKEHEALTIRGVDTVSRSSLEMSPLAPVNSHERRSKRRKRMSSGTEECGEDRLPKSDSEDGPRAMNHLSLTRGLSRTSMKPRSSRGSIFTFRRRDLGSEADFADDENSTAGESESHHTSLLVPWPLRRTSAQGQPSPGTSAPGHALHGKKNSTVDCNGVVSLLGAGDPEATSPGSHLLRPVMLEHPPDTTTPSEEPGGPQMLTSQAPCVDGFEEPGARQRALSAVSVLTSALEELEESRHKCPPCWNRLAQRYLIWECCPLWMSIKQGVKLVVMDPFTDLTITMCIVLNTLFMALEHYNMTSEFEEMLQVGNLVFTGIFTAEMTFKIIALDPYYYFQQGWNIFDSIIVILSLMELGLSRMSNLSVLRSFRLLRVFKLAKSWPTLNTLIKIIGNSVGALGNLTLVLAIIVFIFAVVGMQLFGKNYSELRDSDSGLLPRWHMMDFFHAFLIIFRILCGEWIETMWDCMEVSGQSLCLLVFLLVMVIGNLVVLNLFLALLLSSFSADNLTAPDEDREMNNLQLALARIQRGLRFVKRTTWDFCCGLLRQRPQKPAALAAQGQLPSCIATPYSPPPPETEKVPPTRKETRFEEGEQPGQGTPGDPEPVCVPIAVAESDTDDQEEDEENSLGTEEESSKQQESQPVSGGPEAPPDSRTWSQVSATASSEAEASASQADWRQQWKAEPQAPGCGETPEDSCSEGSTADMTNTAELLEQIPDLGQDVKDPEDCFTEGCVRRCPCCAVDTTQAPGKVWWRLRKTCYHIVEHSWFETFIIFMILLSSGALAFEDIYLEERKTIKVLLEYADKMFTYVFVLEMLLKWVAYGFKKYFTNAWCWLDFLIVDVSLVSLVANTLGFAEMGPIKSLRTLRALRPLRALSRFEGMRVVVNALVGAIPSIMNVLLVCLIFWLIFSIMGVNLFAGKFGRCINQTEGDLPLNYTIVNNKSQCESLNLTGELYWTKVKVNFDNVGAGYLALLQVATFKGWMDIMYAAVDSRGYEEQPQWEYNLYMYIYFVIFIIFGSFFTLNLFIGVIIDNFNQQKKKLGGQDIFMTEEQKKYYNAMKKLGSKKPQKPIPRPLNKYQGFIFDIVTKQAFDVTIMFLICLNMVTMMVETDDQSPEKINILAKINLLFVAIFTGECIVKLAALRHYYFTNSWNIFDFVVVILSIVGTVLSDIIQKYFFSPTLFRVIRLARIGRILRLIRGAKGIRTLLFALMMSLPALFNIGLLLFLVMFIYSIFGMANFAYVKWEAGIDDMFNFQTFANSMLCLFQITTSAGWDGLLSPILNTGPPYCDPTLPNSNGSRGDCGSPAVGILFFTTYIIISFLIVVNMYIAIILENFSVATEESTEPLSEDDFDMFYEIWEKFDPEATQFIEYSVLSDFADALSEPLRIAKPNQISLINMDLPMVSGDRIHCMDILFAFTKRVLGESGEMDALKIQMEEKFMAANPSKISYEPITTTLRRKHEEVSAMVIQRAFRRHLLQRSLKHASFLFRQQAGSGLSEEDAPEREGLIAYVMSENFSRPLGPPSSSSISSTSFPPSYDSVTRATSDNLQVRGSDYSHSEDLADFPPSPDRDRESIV
T9 sequence (P16389 whole entry): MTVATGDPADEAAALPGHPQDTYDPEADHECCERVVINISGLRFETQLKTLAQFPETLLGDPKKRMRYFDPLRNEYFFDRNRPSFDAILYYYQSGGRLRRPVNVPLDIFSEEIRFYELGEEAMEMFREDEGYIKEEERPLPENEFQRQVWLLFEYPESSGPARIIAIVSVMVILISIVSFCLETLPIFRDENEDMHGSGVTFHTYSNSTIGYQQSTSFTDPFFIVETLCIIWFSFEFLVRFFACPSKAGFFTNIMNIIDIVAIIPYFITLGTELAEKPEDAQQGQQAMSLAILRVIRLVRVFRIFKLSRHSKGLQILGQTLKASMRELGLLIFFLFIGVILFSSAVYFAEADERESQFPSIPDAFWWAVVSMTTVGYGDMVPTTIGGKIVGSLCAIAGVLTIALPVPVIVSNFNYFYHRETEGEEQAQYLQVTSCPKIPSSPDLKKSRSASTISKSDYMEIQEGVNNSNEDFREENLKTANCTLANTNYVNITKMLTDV
T7 sequence (P63252 whole entry): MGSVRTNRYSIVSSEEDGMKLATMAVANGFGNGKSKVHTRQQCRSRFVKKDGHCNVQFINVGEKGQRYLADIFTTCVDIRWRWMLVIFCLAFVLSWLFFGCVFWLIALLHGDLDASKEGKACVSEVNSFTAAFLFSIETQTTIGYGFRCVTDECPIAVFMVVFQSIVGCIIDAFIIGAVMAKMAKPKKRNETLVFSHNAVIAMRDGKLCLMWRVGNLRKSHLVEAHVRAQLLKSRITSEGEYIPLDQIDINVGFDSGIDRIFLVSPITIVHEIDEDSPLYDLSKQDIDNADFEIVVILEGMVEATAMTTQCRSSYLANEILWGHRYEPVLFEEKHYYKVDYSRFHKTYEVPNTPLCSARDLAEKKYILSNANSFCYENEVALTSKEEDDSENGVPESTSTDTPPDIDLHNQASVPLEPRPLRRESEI

With “34 (GGYSRCQLQGFNCVVRSYGLPTIPCCRGLTCRSYFPGSTYGRCQRY) [compound 34]” the “Activity of 5HT3a with peptide (percentage of the reference compound)” value (5HT3a) was 97%, the “Activity of 5HT3a with peptide, expressed as a percentage of the reference compound” value (5HT3a) was 114% and the “Activity of a3b4 with peptide, expressed as a percentage of the reference compound” value (α3β4; peptide at 0.2 μM) was 103%. The “Activity of a3b4 with peptide (percentage of the reference compound)” value (α3β4; peptide at 20 μM) was 97%, the “Activity of a4b2 with peptide, expressed as a percentage of the reference compound” value (α4β2; peptide at 0.2 μM) was 81% and the “Activity of a4b2 with peptide (percentage of the reference compound)” value (α4β2; peptide at 20 μM) was 51%. For the same substance, the “Activity of Cav2.1 with peptide, expressed as a percentage of the reference compound” value (Cav2.1; peptide at 0.2 μM) was 86%, the “Activity of Cav2.1 with peptide (percentage of the reference compound)” value (Cav2.1; peptide at 20 μM) was 111% and the “Activity of Cav2.2 with peptide, expressed as a percentage of the reference compound” value (Cav2.2; peptide at 0.2 μM) was 130%. The “Activity of Cav2.2 with peptide (percentage of the reference compound)” value (Cav2.2; peptide at 20 μM) was 94%, the “Activity of Kv2.1 with peptide, expressed as a percentage of the reference compound” value (Kv2.1; peptide at 0.2 μM) was 98% and the “Activity of Kv2.1 with peptide (percentage of the reference compound)” value (Kv2.1; peptide at 20 μM) was 97%. The “Activity of GABA with peptide, expressed as a percentage of the reference compound” value (GABA; peptide at 0.2 μM) was 107%, the “Activity of GABA with peptide (percentage of the reference compound)” value (GABA; peptide at 20 μM) was 117% and the “Activity of Nav1.5 with peptide, expressed as a percentage of the reference compound” value (Nav1.5; [1]) was 111%. For the same substance, the “Activity of Nav1.5 with peptide, expressed as a percentage of the reference compound” value (Nav1.5; [2]) was 113%, the “Activity of Nav1.5 with peptide (percentage of the reference compound)” value (Nav1.5; [1]) was 101% and the “Activity of Nav1.5 with peptide (percentage of the reference compound)” value (Nav1.5; [2]) was 101%. For the same substance, the “Activity of hERG with peptide, expressed as a percentage of the reference compound” value (hERG; peptide at 0.2 μM) was 84%, the “Activity of hERG with peptide (percentage of the reference compound)” value (hERG; peptide at 20 μM) was 66% and the “Activity of Kir2.1 with peptide, expressed as a percentage of the reference compound” value (Kir2.1; peptide at 0.2 μM) was 97%. For the same substance, the “Activity of Kir2.1 with peptide (percentage of the reference compound)” value (Kir2.1; peptide at 20 μM) was 50%, the “Activity of Kv1.1 with peptide, expressed as a percentage of the reference compound” value (Kv1.1; peptide at 0.2 μM) was 109% and the “Activity of Kv1.1 with peptide (percentage of the reference compound)” value (Kv1.1; peptide at 20 μM) was 111%. The “Activity of Kv1.2 with peptide, expressed as a percentage of the reference compound” value (Kv1.2; peptide at 0.2 μM) was 96%, the “Activity of Kv1.2 with peptide (percentage of the reference compound)” value (Kv1.2; peptide at 20 μM) was 51% and the “Activity of Kv1.3 with peptide, expressed as a percentage of the reference compound” value (Kv1.3; peptide at 0.2 μM) was 108%. The “Activity of Kv1.3 with peptide (percentage of the reference compound)” value (Kv1.3; peptide at 20 μM) was 100%, the “Activity of Nav1.7 with peptide, expressed as a percentage of the reference compound” value (Nav1.7; [3]) was 102% and the “Activity of Nav1.7 with peptide, expressed as a percentage of the reference compound” value (Nav1.7; [4]) was 104%. For the same substance, the “Activity of Nav1.7 with peptide (percentage of the reference compound)” value (Nav1.7; [3]) was 86%, the “Activity of Nav1.7 with peptide (percentage of the reference compound)” value (Nav1.7; [4]) was 80% and the “Activity of NR2A with peptide, expressed as a percentage of the reference compound” value (NR2A; peptide at 0.2 μM) was 112%. For the same substance, the “Activity of NR2A with peptide (percentage of the reference compound)” value (NR2A; peptide at 20 μM) was 77%, the “Activity of NR2B with peptide, expressed as a percentage of the reference compound” value (NR2B; peptide at 0.2 μM) was 127% and the “Activity of NR2B with peptide (percentage of the reference compound)” value (NR2B; peptide at 20 μM) was 66%. For the same substance, the “Activity of TRPA1 with peptide, expressed as a percentage of the reference compound” value (TRPA1; peptide at 0.2 μM) was 91%, the “Activity of TRPA1 with peptide (percentage of the reference compound)” value (TRPA1; peptide at 20 μM) was 97% and the “Activity of TRPV1 with peptide, expressed as a percentage of the reference compound” value (TRPV1; peptide at 0.2 μM) was 110%. The “Activity of TRPV1 with peptide (percentage of the reference compound)” value (TRPV1; peptide at 20 μM) was 71%.

From patent US20200262877A1, “ION CHANNEL-BINDING PEPTIDES AND METHODS OF USE THEREOF” (priority 2017, published 2020)
